Columns and labels:
Test in all cases: flow cytometry on HEK293 cells expressing the target
[1] = biological target: T1, siglec 10 expressed on HEK293 cells (UniProt Q96LC7 17-697, limits assumed)
T1 construct: whole, on cells; also called Siglec-6 family member
T1 sequence (looked up): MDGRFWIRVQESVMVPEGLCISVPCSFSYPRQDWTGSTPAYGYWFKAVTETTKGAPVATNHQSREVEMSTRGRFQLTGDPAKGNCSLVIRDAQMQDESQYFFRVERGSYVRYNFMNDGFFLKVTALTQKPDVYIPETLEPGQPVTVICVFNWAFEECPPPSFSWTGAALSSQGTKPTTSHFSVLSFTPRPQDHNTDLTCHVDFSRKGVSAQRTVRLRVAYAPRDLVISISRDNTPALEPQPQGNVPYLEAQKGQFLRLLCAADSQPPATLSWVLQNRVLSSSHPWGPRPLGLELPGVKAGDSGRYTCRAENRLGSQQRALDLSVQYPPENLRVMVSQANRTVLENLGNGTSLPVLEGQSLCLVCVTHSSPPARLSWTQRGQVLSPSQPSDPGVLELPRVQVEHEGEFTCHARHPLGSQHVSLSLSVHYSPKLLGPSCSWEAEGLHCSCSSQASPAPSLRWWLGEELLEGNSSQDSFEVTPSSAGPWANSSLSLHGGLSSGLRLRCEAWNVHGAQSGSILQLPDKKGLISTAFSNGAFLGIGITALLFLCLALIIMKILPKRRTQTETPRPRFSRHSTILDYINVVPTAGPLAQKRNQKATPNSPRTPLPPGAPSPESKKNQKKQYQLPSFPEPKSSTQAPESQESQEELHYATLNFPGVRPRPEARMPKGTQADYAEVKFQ
Procedure: (§1) Cultured HEK293 cells expressing human siglec-6, cynomolgus siglec-6, or siglec 6 family members were resuspended in FACS Blocking Buffer (PBS+10% normal human serum) for 30 minutes. Following washing, cells were incubated with siglec-6 antibodies in FACS Buffer (PBS+0.5% bovine serum albumin+0.09% sodium azide) and incubated at 4° C. for 30 minutes, washed and incubated with PE-labeled anti-human secondary antibody. Cells were incubated at 4° C. for 30 minutes in the dark. Following washing, cytofluorimetric analysis was conducted using a BD FACS Symphony A3 (BD Biosciences). Cells were sorted by scatter properties and separated for single cell analysis using side scatter width vs side scatter area. Antibody binding to cells was quantitated by measuring fluorescent emissions of excitation wavelength of 561 nm using a 586/15 nm filter. Data analysis was performed using FlowJo Software.

[2] = biological target: T2, siglec 1 expressed on HEK293 cells (UniProt Q9BZZ2 20-1709, limits assumed)
T2 construct: whole, on cells; also called Siglec-6 family member
Procedure: as §1

[3] = biological target: T3, siglec 4 expressed on HEK293 cells (UniProt P20916 20-626, limits assumed)
T3 construct: whole, on cells; also called Siglec-6 family member
T3 sequence (looked up): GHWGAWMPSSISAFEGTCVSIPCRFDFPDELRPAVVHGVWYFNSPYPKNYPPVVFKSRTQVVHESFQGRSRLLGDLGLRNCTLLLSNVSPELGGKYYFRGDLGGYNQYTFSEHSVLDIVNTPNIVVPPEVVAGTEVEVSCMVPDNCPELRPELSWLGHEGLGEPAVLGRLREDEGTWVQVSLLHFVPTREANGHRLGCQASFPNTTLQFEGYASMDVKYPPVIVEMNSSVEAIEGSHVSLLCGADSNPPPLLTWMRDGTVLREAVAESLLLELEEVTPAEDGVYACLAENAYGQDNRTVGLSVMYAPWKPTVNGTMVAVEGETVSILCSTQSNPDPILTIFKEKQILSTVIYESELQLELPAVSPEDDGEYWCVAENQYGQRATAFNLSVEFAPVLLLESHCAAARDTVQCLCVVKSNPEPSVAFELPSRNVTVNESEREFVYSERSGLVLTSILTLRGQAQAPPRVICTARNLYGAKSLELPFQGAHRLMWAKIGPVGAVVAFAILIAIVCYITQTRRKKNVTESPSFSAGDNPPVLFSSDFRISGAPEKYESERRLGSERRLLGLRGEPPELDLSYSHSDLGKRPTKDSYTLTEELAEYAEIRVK
Procedure: as §1

[4] = biological target: T4, siglec 9 expressed on HEK293 cells (UniProt Q9Y336 18-463, limits assumed)
T4 construct: whole, on cells; also called Siglec-6 family member
Procedure: as §1

[5] = biological target: T5, siglec 14 expressed on HEK293 cells (UniProt Q08ET2 17-396, limits assumed)
T5 construct: whole, on cells; also called Siglec-6 family member
T5 sequence (looked up): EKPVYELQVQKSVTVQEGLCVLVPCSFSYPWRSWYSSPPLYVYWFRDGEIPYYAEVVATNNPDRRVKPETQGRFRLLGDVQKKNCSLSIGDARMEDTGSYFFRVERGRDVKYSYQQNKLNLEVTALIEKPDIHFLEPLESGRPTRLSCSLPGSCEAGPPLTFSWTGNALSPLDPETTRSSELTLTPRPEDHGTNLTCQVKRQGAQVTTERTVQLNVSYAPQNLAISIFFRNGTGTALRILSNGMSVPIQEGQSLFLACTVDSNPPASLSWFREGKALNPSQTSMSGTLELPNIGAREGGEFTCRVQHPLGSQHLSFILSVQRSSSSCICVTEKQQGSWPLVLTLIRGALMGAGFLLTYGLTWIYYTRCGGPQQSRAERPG
Procedure: as §1

[6] = biological target: T6, siglec 12 expressed on HEK293 cells (UniProt Q96PQ1 19-595, limits assumed)
T6 construct: whole, on cells; also called Siglec-6 family member
Procedure: as §1

Measured: binding result

T4 sequence (Q9Y336 18-463 limits assumed): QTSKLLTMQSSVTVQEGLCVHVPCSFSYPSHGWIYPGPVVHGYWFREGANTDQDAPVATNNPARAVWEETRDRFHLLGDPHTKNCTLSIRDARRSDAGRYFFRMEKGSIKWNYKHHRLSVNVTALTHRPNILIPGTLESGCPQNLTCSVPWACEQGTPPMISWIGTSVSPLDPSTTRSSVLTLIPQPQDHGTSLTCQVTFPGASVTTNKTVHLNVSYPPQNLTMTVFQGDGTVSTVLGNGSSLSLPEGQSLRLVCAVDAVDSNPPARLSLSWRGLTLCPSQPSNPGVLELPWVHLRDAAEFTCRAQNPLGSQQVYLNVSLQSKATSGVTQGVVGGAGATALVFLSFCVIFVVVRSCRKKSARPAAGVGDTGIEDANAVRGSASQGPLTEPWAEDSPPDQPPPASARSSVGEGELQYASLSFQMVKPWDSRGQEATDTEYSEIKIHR
T6 sequence (Q96PQ1 19-595 limits assumed): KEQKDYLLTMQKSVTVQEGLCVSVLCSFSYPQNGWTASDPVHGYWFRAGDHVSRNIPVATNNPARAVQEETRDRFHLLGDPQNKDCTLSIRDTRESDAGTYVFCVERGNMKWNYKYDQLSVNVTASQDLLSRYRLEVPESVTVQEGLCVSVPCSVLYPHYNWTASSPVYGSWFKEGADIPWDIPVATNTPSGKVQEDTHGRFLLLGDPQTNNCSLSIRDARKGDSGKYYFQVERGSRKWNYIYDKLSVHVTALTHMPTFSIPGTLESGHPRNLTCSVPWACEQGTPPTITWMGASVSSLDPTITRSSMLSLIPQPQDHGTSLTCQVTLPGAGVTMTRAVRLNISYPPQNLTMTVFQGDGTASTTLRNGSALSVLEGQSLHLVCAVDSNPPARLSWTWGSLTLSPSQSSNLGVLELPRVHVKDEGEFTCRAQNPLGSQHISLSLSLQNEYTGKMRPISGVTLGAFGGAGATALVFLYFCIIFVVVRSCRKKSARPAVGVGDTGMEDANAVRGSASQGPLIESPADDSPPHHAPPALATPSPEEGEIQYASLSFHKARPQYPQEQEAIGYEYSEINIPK
T2 sequence (Q9BZZ2 20-1709 limits assumed): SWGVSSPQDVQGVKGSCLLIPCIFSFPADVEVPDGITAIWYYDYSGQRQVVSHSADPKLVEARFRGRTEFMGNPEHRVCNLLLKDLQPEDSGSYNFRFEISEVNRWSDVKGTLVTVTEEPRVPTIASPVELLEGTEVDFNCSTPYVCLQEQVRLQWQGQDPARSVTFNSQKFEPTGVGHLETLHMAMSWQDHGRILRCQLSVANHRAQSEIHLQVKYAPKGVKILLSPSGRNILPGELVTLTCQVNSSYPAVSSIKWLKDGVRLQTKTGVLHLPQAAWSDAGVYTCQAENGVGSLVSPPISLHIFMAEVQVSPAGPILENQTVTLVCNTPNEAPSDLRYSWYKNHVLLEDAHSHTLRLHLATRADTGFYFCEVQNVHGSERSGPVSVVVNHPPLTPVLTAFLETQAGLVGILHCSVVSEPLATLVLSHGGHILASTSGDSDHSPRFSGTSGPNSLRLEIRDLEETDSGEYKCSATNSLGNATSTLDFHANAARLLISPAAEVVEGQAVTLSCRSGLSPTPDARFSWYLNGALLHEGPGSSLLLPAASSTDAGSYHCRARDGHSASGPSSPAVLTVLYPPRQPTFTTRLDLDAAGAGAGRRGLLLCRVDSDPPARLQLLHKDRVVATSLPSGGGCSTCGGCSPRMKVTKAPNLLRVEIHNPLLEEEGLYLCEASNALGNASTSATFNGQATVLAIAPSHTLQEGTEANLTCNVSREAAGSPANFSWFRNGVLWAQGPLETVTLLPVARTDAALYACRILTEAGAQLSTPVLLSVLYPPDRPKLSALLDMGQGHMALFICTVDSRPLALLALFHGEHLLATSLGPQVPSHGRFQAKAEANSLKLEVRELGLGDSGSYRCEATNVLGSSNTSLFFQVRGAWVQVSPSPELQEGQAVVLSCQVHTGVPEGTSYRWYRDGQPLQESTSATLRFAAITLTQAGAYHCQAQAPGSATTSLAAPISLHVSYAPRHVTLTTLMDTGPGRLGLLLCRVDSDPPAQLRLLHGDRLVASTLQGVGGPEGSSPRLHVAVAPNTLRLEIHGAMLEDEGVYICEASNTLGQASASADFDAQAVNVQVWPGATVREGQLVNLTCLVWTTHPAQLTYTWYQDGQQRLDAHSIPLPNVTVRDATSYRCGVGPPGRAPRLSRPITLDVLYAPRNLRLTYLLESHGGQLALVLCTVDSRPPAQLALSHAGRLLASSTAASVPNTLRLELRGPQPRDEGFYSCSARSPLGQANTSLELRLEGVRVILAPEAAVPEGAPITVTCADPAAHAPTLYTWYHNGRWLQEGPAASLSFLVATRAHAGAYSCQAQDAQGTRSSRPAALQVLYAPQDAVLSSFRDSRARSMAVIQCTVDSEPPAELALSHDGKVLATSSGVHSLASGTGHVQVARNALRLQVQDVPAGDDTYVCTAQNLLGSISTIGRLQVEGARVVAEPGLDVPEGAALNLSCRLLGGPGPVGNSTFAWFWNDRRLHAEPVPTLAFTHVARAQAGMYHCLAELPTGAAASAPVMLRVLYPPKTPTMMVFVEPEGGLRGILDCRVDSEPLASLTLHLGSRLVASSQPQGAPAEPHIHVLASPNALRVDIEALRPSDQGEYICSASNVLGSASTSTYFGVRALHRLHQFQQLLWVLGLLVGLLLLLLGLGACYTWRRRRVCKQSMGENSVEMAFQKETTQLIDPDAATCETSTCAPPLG

B1: hRND-2 (antibody, human IgG1, kappa, V domains shown)
VH: QVQLVQSGAEVKKPGASVKVSCKASGYAFTSYWMHWVRQAPGQRLEWMGEIYPTNGGTTYAQKFQGRVTMTVDKSTSTAYMELSRLRSDDTAVYYCTIEDFYAMDYWGQGTTVTVSS
VL: DIVMTQTPLSLSVTPGQPASISCKSSQSLLDSDGKTSLNWLLQKPGQSPQRLIYLVSKLDSGVPDRFSGSGSGTDFTLKISRVEAEDVGVYYCWQGTHFPYTFGQGTKLEIKR
notes: also called humanized RND-2; hRND-H2 / hRND-L3; copies: 2 + 2
no binding: all assays above

B2: hRND-5 (antibody, human IgG1, kappa, V domains shown)
VH: QVQLVQSGAEVKKPGASVKLSCKASGYAFTSYWMHWVRQAPGQRLEWIGEIYPTNGGTTYNEKFKRRATLTVDKSTSTAYMELSRLRSDDTAVYYCTIEDFYAMDYWGQGTTVTVSS
VL: DIVMTQTPLSLSVTPGQPASISCKSSQSLLDSDGKTSLNWLLQKPGQSPQRLIYLVSKLDSGVPDRFSGSGSGTDFTLKISRVEAEDVGVYYCWQGTHFPYTFGQGTKLEIKR
notes: also called humanized RND-5; hRND-H3b / hRND-L3; copies: 2 + 2
no binding: all assays above

B3: hRND-3 (antibody, human IgG1, kappa, V domains shown)
VH: QVQLVQSGAEVKKPGASVKLSCKASGYAFTSYWMHWVRQAPGQRLEWIGEIYPTNGGTTYAQKFQGRATLTVDKSTSTAYMELSRLRSDDTAVYYCTIEDFYAMDYWGQGTTVTVSS
VL: DIVMTQTPLSLSVTPGQPASISCKSSQSLLDSDGKTSLNWLLQKPGQSPQRLIYLVSKLDSGVPDRFSGSGSGTDFTLKISRVEAEDVGVYYCWQGTHFPYTFGQGTKLEIKR
notes: also called humanized RND-3; hRND-H3 / hRND-L3; copies: 2 + 2
no binding: all assays above

B4: hRND-4 (antibody, human IgG1, kappa, V domains shown)
VH: QVQLVQSGAEVKKPGASVKVSCKASGYAFTSYWMHWVRQAPGQRLEWMGEIYPTNGGTTYNEKFKRRVTMTVDKSTSTAYMELSRLRSDDTAVYYCTIEDFYAMDYWGQGTTVTVSS
VL: DIVMTQTPLSLSVTPGQPASISCKSSQSLLDSDGKTSLNWLLQKPGQSPQRLIYLVSKLDSGVPDRFSGSGSGTDFTLKISRVEAEDVGVYYCWQGTHFPYTFGQGTKLEIKR
notes: also called humanized RND-4; hRND-H2b / hRND-L3; copies: 2 + 2
no binding: all assays above

— patent publication US20260070975A1 (SANTA ANA BIO, published 2026)
